Reference: paper PMC2192906
pKd: −log10 of the molar value. Like-named read-outs stand apart in the source and are kept apart here. Values belong to the substance of their own block, whether it stands above or below them.

How the values were obtained:
[1] = molecular target: biotinylated L^d–QL9 complex (immobilised on the chip) (UniProt Q60597); test: SPR
[2] = molecular target: QL9/L^d complex on the surface of T2-L^d cells (UniProt Q60597); test: radioligand binding
[3] = molecular target: 2C scTCR 102/55 double mutant (αS102A, βT55A) (mouse); test: SPR
[4] = molecular target: 2C single-chain TCR (scTCR), wild-type, thioredoxin fusion (mouse); test: SPR
[5] = molecular target: 2C scTCR 102/55 double mutant (αS102A, βT55A) (mouse); test: SPR; remark: listed apart in the source

pKd [1]: 6.15
fold better than wild-type (IC50 ratio) [2]: 2.3 fold
Substance: 2C scTCR 102/55 double mutant (αS102A, βT55A)

ΔΔG against wild-type [2]: -0.32 kcal/mol
Substance: 2C scTCR 102/56 double mutant (αS102A, βE56A)

fold reduced against wild-type (IC50 ratio) [2]: 15 fold
Substance: 2C scTCR αS51P mutant (Vα3.2-like)

ΔΔG against wild-type [2]: -0.31 kcal/mol
Substance: 2C scTCR αS102A mutant

ΔΔG against wild-type [2]: -0.11 kcal/mol
Substance: 2C scTCR βE56A mutant

ΔΔG against wild-type [2]: 1.06 kcal/mol
Substance: 2C scTCR βE56K mutant

ΔΔG against wild-type [2]: -0.23 kcal/mol
Substance: 2C scTCR βT55A mutant

pKd [1]: 5.72
Substance: 2C single-chain TCR (scTCR), wild-type, thioredoxin fusion

Substance: purified soluble L^d–QL9 complex (from UniProt Q60597 41-1023) (peptide-MHC)
pKd [3]: 5.92
pKd [4]: 5.72
pKd [5]: 5.62
koff of wild-type over koff of 102/55 (fold faster) [5]: 3.2 fold
kon of wild-type over kon of 102/55 (fold faster) [5]: 2.4 fold
